{"source": "patent US20020164744A1", "about": "“Soluble, active recombinant human MAO-B” (priority 1999, published 2002)", "molecules": {"B1": {"name": "Met1-Leu498: C-terminal deletion mutant of human MAO-B-HIS6, residues Met1-Leu498 (protein, UniProt P27338 1-498, looked up, fragment)", "chain": "MSNKCDVVVVGGGISGMAAAKLLHDSGLNVVVLEARDRVGGRTYTLRNQKVKYVDLGGSYVGPTQNRILRLAKELGLETYKVNEVERLIHHVKGKSYPFRGPFPPVWNPITYLDHNNFWRTMDDMGREIPSDAPWKAPLAEEWDNMTMKELLDKLCWTESAKQLATLFVNLCVTAETHEVSALWFLWYVKQCGGTTRIISTTNGGQERKFVGGSGQVSERIMDLLGDRVKLERPVIYIDQTRENVLVETLNHEMYEAKYVISAIPPTLGMKIHFNPPLPMMRNQMITRVPLGSVIKCIVYYKEPFWRKKDYCGTMIIDGEEAPVAYTLDDTKPEGNYAAIMGFILAHKARKLARLTKEERLKKLCELYAKVLGSLEALEPVHYEEKNWCEEQYSGGCYTTYFPPGILTQYGRVLRQPVDRIYFAGTETATHWSGYMEGAVEAGERAAREILHAMGKIPEDEIWQSEPESVDVPAQPITTTFLERHLPSVPGLLRLIGL", "modifications": "His6 tag"}, "B2": {"name": "Post-Superose 6 chromatography/concentrate: recombinant human MAO-B further resolved on Superose-6 size exclusion column and concentrated (protein, UniProt P27338 2-520, looked up)", "Amine oxidase …": "SNKCDVVVVGGGISGMAAAKLLHDSGLNVVVLEARDRVGGRTYTLRNQKVKYVDLGGSYVGPTQNRILRLAKELGLETYKVNEVERLIHHVKGKSYPFRGPFPPVWNPITYLDHNNFWRTMDDMGREIPSDAPWKAPLAEEWDNMTMKELLDKLCWTESAKQLATLFVNLCVTAETHEVSALWFLWYVKQCGGTTRIISTTNGGQERKFVGGSGQVSERIMDLLGDRVKLERPVIYIDQTRENVLVETLNHEMYEAKYVISAIPPTLGMKIHFNPPLPMMRNQMITRVPLGSVIKCIVYYKEPFWRKKDYCGTMIIDGEEAPVAYTLDDTKPEGNYAAIMGFILAHKARKLARLTKEERLKKLCELYAKVLGSLEALEPVHYEEKNWCEEQYSGGCYTTYFPPGILTQYGRVLRQPVDRIYFAGTETATHWSGYMEGAVEAGERAAREILHAMGKIPEDEIWQSEPESVDVPAQPITTTFLERHLPSVPGLLRLIGLTTIFSATALGFLAHKRGLLVRV"}, "B3": {"name": "IMAC eluted/concentrate: HIS-tagged recombinant human MAO-B from yeast extract, eluted from Ni-NTA IMAC column and concentrated (protein, UniProt P27338 2-520, looked up)", "Amine oxidase …": "B2 Amine oxidase …", "modifications": "His tag", "notes": "HIS-tagged recombinant human MAO-B from yeast extract, eluted from Ni-NTA IMAC column and concentrated"}, "B4": {"name": "wild-type MAO-B: purified full-length recombinant human MAO-B with HIS6 tag expressed in S. cerevisiae (protein, UniProt P27338 1-520, looked up)", "chain": "MSNKCDVVVVGGGISGMAAAKLLHDSGLNVVVLEARDRVGGRTYTLRNQKVKYVDLGGSYVGPTQNRILRLAKELGLETYKVNEVERLIHHVKGKSYPFRGPFPPVWNPITYLDHNNFWRTMDDMGREIPSDAPWKAPLAEEWDNMTMKELLDKLCWTESAKQLATLFVNLCVTAETHEVSALWFLWYVKQCGGTTRIISTTNGGQERKFVGGSGQVSERIMDLLGDRVKLERPVIYIDQTRENVLVETLNHEMYEAKYVISAIPPTLGMKIHFNPPLPMMRNQMITRVPLGSVIKCIVYYKEPFWRKKDYCGTMIIDGEEAPVAYTLDDTKPEGNYAAIMGFILAHKARKLARLTKEERLKKLCELYAKVLGSLEALEPVHYEEKNWCEEQYSGGCYTTYFPPGILTQYGRVLRQPVDRIYFAGTETATHWSGYMEGAVEAGERAAREILHAMGKIPEDEIWQSEPESVDVPAQPITTTFLERHLPSVPGLLRLIGLTTIFSATALGFLAHKRGLLVRV", "modifications": "full-length His6 tag", "notes": "purified full-length recombinant human MAO-B with HIS6 tag expressed in S. cerevisiae"}}, "key": {"[1]": {"test_system": "recombinant human MAO-B", "test": "MAO-B activity assay (reaction velocity, specific activity, Km) with 1-methyl-4-(1-methyl-2-pyrryl)-1,2,3,6-tetrahydropyridine as substrate", "format": "biochemical", "settings": "substrate 1-methyl-4-(1-methyl-2-pyrryl)-1,2,3,6-tetrahydropyridine; purified C-terminal deletion mutants", "procedure": "(§1) The MAO-B containing solutions, including fractions isolated from chromatography columns, were assayed to measure reaction velocity. The assays were carried out in a final volume of 200 μl in 50 mM sodium phosphate, 10 mM NaCl, pH 7.5, with 0.2 mM substrate (1-methyl-4-(1-methyl-2-pyrryl)-1,2,3,6-tetrahydropyridine) as described in Flaherty, et al., J. Med. Chem., 39:4756-4761 (1996) hereby incorporated by reference. Reaction velocity was followed at an absorbence of 420 nm at 37° C. in a SpectraMax 250 96-well plate reader. Specific activity measurements were made using a Shimadzu UV-2101PC spectrophotometer equipped with a Shimadzu temperature controller (TCC-controller) set to 37° C. Protein concentrations were determined using the Bio-Rad Protein Assay kit (Bio-Rad Laboratories, Hercules, Calif.).\n(§2) Analysis of samples containing purified wild-typeMAO-B was carried out using 1-methyl-4-(1-methyl-2-pyrryl)-1,2,3,6-tetrahydropyridine as the substrate. The effect of protein concentration on activity was measured. […] The plot of MAO-B concentration vs. activity was a straight line. Variation of the substrate at a constant enzyme concentration was used to determine the Km for the substrate. […] Again, the reaction progress at each concentration of substrate was followed as straight lines with coefficients of correlation greater than 0.99.\n(§3) The activity of samples containing the purified mutant MAO-B described in Example 1 above was also analyzed using 1-methyl-4-(1-methyl-2-pyrryl)-1,2,3,6-tetrahydropyridine as the substrate. Activity was highest for wild-type MAO-B followed by the MAO-B mutant Met1-Leu498 which had approximately 10% of wild-type activity. The two remaining C-terminal deletion mutants, Met1-Val470 and Met1-Val418, had about the same activities, less than 0.1% of wild-type MAO-B activity. This confirms that deletion or truncation of the C-terminus of human MAO-B causes loss of enzymatic activity."}, "[2]": {"biological_target": "T1, recombinant human MAO-B (Homo sapiens, UniProt P27338)", "T1 construct": "DNA coding for the full length and truncated C-terminal HIS tagged MAO-B proteins, as described above; made in house; host or cells: Saccharomyces cerevisiae INVSc1", "T1 sequence (P27338 1-520)": "B4 chain", "test": "MAO-B activity assay (reaction velocity, specific activity, Km) with 1-methyl-4-(1-methyl-2-pyrryl)-1,2,3,6-tetrahydropyridine as substrate", "format": "biochemical", "procedure": "as §1, §2, §3"}, "[3]": {"settings": "substrate 1-methyl-4-(1-methyl-2-pyrryl)-1,2,3,6-tetrahydropyridine, 37° C., fraction after purification step"}, "[4]": {"settings": "substrate 1-methyl-4-(1-methyl-2-pyrryl)-1,2,3,6-tetrahydropyridine, fraction after purification step, read-out: Km FOR SUBSTRATE"}}, "note": "Where two headings read alike, the source gives them in different places.", "data": [{"molecule": "B1", "values": [{"measurement": "activity relative to wild-type MAO-B activity", "setting": "[1]", "value": "approximately 10%"}]}, {"molecule": "B2", "values": [{"measurement": "SPECIFIC ACTIVITY", "setting": "[2]; [3]", "value": 80.6, "unit": "nmol/min/mg"}, {"measurement": "Km", "setting": "[2]; [4]", "value": 55.4, "unit": "µM"}]}, {"molecule": "B3", "values": [{"measurement": "SPECIFIC ACTIVITY", "setting": "[2]; [3]", "value": 8.7, "unit": "nmol/min/mg"}, {"measurement": "Km", "setting": "[2]; [4]", "value": 71.9, "unit": "µM"}]}, {"molecule": "B4", "values": [{"measurement": "activity (rank among wild-type and mutants)", "setting": "[2]; substrate 1-methyl-4-(1-methyl-2-pyrryl)-1,2,3,6-tetrahydropyridine", "value": "highest"}, {"measurement": "Km", "setting": "[2]; substrate 1-methyl-4-(1-methyl-2-pyrryl)-1,2,3,6-tetrahydropyridine varied at constant enzyme concentration, 37° C., read-out: Km for the substrate (Lineweaver Burke plot)", "value": 71.9, "unit": "µM"}]}]}
